WO2013015821A1

Columns and labels:
[1] = biological target: human transcobalamin receptor (TCblR/CD320), full length, on cells (human) (UniProt Q9NPF0); assay: TC-[57Co]Cbl on normal and TCblR overexpressing HEK 293 cells, 1 hour at 37°C, surface counts released by trypsin/EDTA
[2] = biological target: TCblR with the cytoplasmic tail deleted, membrane-anchored on HEK293 cells (human) (UniProt Q9NPF0); assay: TC-[57Co]Cbl on HEK293 cells expressing TCblR with the cytoplasmic tail deleted, surface counts released by trypsin/EDTA

Chain of UniProt Q9NPF0 (Q9NPF0 36-282 limits assumed): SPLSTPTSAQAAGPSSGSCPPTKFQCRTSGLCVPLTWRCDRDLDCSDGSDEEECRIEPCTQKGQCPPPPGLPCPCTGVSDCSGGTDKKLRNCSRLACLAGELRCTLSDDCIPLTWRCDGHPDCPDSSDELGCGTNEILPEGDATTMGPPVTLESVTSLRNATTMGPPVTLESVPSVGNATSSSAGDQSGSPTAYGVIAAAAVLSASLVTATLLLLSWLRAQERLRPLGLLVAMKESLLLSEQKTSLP

B1: transcobalamin saturated with cobalamin (TC-Cbl) (ligand, human, UniProt P20062 19-427, looked up)
chain: EMCEIPEMDSHLVEKLGQHLLPWMDRLSLEHLNPSIYVGLRLSSLQAGTKEDLYLHSLKLGYQQCLLGSAFSEDDGDCQGKPSMGQLALYLLALRANCEFVRGHKGDRLVSQLKWFLEDEKRAIGHDHKGHPHTSYYQYGLGILALCLHQKRVHDSVVDKLLYAVEPFHQGHHSVDTAAMAGLAFTCLKRSNFNPGRRQRITMAIRTVREEILKAQTPEGHFGNVYSTPLALQFLMTSPMRGAELGTACLKARVALLASLQDGAFQNALMISQLLPVLNHKTYIDLIFPDCLAPRVMLEPAAETIPQTQEIISVTLQVLSLLPPYRQSISVLAGSTVEDVLKKAHELGGFTYETQASLSGPYLTSVMGKAAGEREFWQLLRDPNTPLLQGIADYRPKDGETIELRLVSW
modifications: cobalamin bound non-covalently ([57Co]Cbl in the radio assays)
% of the radiolabel on the membrane [1]: 37 to 43%
% of the TCblR-bound radiolabel remaining on the cell surface [2]: 80%
